PMC6611172 (ACS chemical biology, 2018)
Ends that are not written are not given here.

Tests used:
[1] = molecular target: GAS41 YEATS domain (residues 13–158), His6-tagged, 15N-labeled (human) (UniProt O95619); assay: NMR titration
[2] = molecular target: GST-tagged GAS41 YEATS (residues 1–148) (human) (UniProt O95619); assay: ITC
[3] = molecular target: full-length GAS41, Avi-tagged, mono-biotinylated (human) (UniProt O95619); assay: BLI
[4] = molecular target: full-length GAS41, Avi-tagged, mono-biotinylated (human, UniProt O95619 1-227, biotin (mono-biotinylated on the Avi tag by BirA)); assay: BLI
full-length GAS41, Avi-tagged, mono-biotinylated, sequence (O95619 whole entry, the tested form may be a part): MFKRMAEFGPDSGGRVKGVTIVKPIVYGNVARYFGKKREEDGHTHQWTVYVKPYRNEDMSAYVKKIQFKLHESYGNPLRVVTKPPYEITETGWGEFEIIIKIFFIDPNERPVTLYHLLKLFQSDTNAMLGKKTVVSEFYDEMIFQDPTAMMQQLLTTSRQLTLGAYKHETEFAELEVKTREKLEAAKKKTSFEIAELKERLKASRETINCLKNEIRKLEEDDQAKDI

[5] = molecular target: GST-tagged GAS41 YEATS (residues 1–148) (human, UniProt O95619 1-148); assay: ITC
GST-tagged GAS41 YEATS (residues 1–148), sequence (O95619 1-148): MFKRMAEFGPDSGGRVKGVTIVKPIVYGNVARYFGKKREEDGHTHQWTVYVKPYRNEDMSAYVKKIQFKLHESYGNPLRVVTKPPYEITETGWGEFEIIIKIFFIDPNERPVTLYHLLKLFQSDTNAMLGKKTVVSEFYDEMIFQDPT

full-length GAS41, Avi-tagged, mono-biotinylated (human), sequence (O95619 whole entry): as the sequence (O95619 whole entry, the tested form may be a part) above
GAS41 YEATS domain (residues 13–158), His6-tagged, 15N-labeled (human), sequence (O95619 13-158): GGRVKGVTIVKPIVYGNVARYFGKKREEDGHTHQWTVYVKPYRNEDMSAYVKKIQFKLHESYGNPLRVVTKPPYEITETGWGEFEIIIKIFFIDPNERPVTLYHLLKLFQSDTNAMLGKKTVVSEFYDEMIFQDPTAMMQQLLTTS
GST-tagged GAS41 YEATS (residues 1–148) (human), sequence (O95619 1-148): as the sequence (O95619 1-148) above

Row | Molecule | Kd [1] | Kd [2] | stoichiometry N (peptide : YEATS domain) [2] | Kd [3] | further results
1 | tripeptide AKacA | 1000 µM |  |  |  | 
2 | H3K23crK27cr peptide |  | 11.1 µM | 0.5 |  | 
3 | H3K27cr peptide | 34 µM | 23.4 µM |  |  | 
4 | H3K27ac peptide | 58 µM | 39 µM | 1 | 81 µM | 
5 | H3 peptide with succinylated K27 (H3K27su) | > 1000 µM |  |  |  | 
6 | H3K14ac peptide | 720 µM |  |  |  | 
7 | H3K18ac peptide | 106 µM |  |  | 36 µM | 
8 | H3K18acK27ac peptide |  | 12.5 µM | 0.5 | 3.2 µM | 
9 | ATK(Ac)AARK(Ac)SAP [H3K23acK27ac peptide] |  |  |  |  | Kd [4]: 5 µM; Kd [5]: 13.6 µM
